# Square brackets hold non-standard residues; d marks the D form. Peptide text beside a SMILES is read from it. Dap = NC[C@H](N)C(=O)O
# Molecular target: T1, KRAS G12V (human, UniProt P01116-2 1-188, limits assumed)
# Assay: cell-based or functional assay
# Settings: not given
Molecule,"IC50 on viability of adherent NCI-H441 cells, CellTiter Glo, 3 days [µM]","decrease in viability of NCI-H441 suspension spheroids, 25 µM, 5 days, CellTiter Glo 3D [%]"
Ac-KVVVGAVGVGKGSKVVVGAVGVGK-NH2 [pept-in 04-033-N001],~10,≥ 75
Ac-KLVVVGAVKGSKLVVVGAVK-NH2 [pept-in 04-014-N001],~10,–
Ac-KLSVFAIKGSKLSVFAIK-NH2 [pept-in 04-004-N001],~10,75
Ac-KVVVGAVGKGSKVVVGAVGK-NH2 [pept-in 04-015-N001],~10,≥ 75
Ac-KVVVGAVKGSKVVVGAVK-NH2 [pept-in 04-006-N001],~10,≥ 75

# Molecular target: T1, KRAS G12V
# Assay: cell-based or functional assay
# Settings: not given
# Remark: another data set of the same source
row,Molecule,Normalised viability NCI-H441 4 days of exposure to 25 µM (%)
1,Ac-KVVVGAVGVGKGSKVVVGAVGVGK-NH2 [pept-in 04-033-N001],5.2
2,Ac-KLVVVGAVKGSKLVVVGAVK-NH2 [pept-in 04-014-N001],9.1
3,Ac-KLSVFAIKGSKLSVFAIK-NH2 [pept-in 04-004-N001],6.1
4,Ac-KVVVGAVGKGSKVVVGAVGK-NH2 [pept-in 04-015-N001],23.3
5,Ac-KVVVGAVKGSKVVVGAVK-NH2 [pept-in 04-006-N001],8.7

# System: NCI-H441 lung adenocarcinoma cells (suspension spheroid cultures)
# Assay: not given
# Assay type: cell-based, human
# Settings: not given
row,Molecule,IC50 [µM]
1,CC(=O)N[C@@H](CN)C(=O)N[C@H](C(=O)N[C@H](C(=O)N[C@H](C(=O)NCC(=O)N[C@@H](C)C(=O)N[C@H](C(=O)NCC(=O)N[C@H](C(=O)NCC(=O)N[C@@H](CCCCN)C(=O)NCC(=O)N[C@@H](CO)C(=O)N[C@@H](CCCCN)C(=O)N[C@@H](Cc1c[nH]c2ccccc12)C(=O)N[C@H](C(=O)NCC(=O)N[C@@H](C)C(=O)N[C@H](C(=O)NCC(=O)N[C@H](C(=O)NCC(=O)N[C@@H](CN)C(N)=O)C(C)C)C(C)C)C(C)C)C(C)C)C(C)C)C(C)C)C(C)C)C(C)C [04-033-N022] (Ac-[Dap]VVVGAVGVGKGSKWVGAVGVG[Dap]-NH2),5
2,Ac-AVVVGAVKGSAVVVGAVK-NH2 [04-006-N060],31.7
3,Ac-KVVVGAVKASKVVVGAVK-NH2 [04-006-N051],10.4
4,CC(=O)N[C@@H](CCCCN)C(=O)N[C@H](C(=O)N[C@H](C(=O)N[C@H](C(=O)NCC(=O)N[C@@H](C)C(=O)N[C@H](C(=O)N[C@@H](CCCCN)C(=O)NCC(=O)N[C@@H](CO)C(=O)N[C@@H](C)C(=O)N[C@H](C(=O)N[C@H](C(=O)N[C@H](C(=O)NCC(=O)N[C@@H](C)C(=O)N[C@H](C(=O)N[C@@H](CCCCN)C(N)=O)C(C)C)C(C)C)C(C)C)C(C)C)C(C)C)C(C)C)C(C)C)C(C)C [04-006-N053],21.6
5,Ac-KVVVGAVGKFFKVVVGAVGK-NH2 [04-015-N064],48.9
6,Ac-KVVVGAVKGAKVVVGAVK-NH2 [04-006-N052],30.6
7,CC(=O)N[C@@H](CCCCN)C(=O)N[C@H](C(=O)N[C@H](C(=O)N[C@H](C(=O)NCC(=O)N[C@@H](C)C(=O)N[C@H](C(=O)NCC(=O)N[C@@H](CCCCN)C(=O)NCC(=O)N[C@@H](Cc1ccccc1)C(=O)N[C@@H](CCCCN)C(=O)N[C@H](C(=O)N[C@H](C(=O)N[C@H](C(=O)NCC(=O)N[C@@H](C)C(=O)N[C@H](C(=O)NCC(=O)N[C@@H](CCCCN)C(N)=O)C(C)C)C(C)C)C(C)C)C(C)C)C(C)C)C(C)C)C(C)C)C(C)C [04-015-N063],38.7
8,Ac-AVVVGAVAGSKVVVGAVK-NH2 [04-006-N082],18.2
9,Ac-KLSVFAIKKLSVFAIK-NH2 [04-004-N016],45.9
10,Ac-AVVVGAVKGSKVVVGAVK-NH2 [04-006-N044],5.3
11,Ac-KVVVGAVGVGKKVVVGAVGVGK-NH2 [04-033-N007],13.1
12,Ac-KVVVGAVAGSKVVVGAVK-NH2 [04-006-N050],5.7

# Same assay, conditions: 25 μM, 5 days of exposure
row,Molecule,activity in the spheroid setting
1,Ac-KLVVVGAVKGSKLVVVGAVK-NH2 [04-014-N001],did not display activity

# Molecular target: T1, KRAS G12V
# Assay: cell-based or functional assay
# Settings: not given
# Remark: another data set of the same source
row,Molecule,"IC50 on cell viability, NCI-H441 suspension spheroids, CellTiter Glo 3D, 5 days [µM]"
1,Ac-KVVVGAVGKFFKVVVGAVGK-NH2 [pept-in 04-015-N064],48.9
2,Ac-KVVVGAVAGSKVVVGAVK-NH2 [pept-in 04-006-N050],5.7
3,Ac-KVVVGAVKGSKVVVGAVA-NH2 [pept-in 04-006-N059],15.7
4,Ac-KVVVGAVGVGKKVVVGAVGVGK-NH2 [pept-in 04-033-N007],13.1
5,Ac-AVVVGAVKGSAVVVGAVK-NH2 [pept-in 04-006-N060],31.7
6,Ac-KVVVGAVGKGFKVVVGAVGK-NH2 [pept-in 04-015-N063],38.7
7,Ac-KVVVGAVAGSKVVVGAVA-NH2 [pept-in 04-006-N066],25.3
8,Ac-AVVVGAVAGSKVVVGAVK-NH2 [pept-in 04-006-N082],18.2
9,Ac-KVVVGAVKASKVVVGAVK-NH2 [pept-in 04-006-N051],10.4
10,Ac-KVVVGAVKGSAVVVGAVK-NH2 [pept-in 04-006-N053],21.6
11,Ac-KLSVFAIKKLSVFAIK-NH2 [pept-in 04-004-N016],45.9
12,Ac-KVVVGAVKGAKVVVGAVK-NH2 [pept-in 04-006-N052],30.6
13,Ac-AVVVGAVKGSKVVVGAVK-NH2 [pept-in 04-006-N044],5.3
